B1: Leukocyte immunoglobulin-like receptor subfamily B member 2 (Homo sapiens), Q8N423 (parent)
chain: MTPIVTVLICLGLSLGPRTRVQTGTIPKPTLWAEPDSVITQGSPVTLSCQGSLEAQEYRLYREKKSASWITRIRPELVKNGQFHIPSITWEHTGRYGCQYYSRARWSELSDPLVLVMTGAYPKPTLSAQPSPVVTSGGRVTLQCESQVAFGGFILCKEGEDEHPQCLNSQPHARGSSRAIFSVGPVSPNRRWSHRCYGYDLNSPYVWSSPSDLLELLVPGVSKKPSLSVQPGPVMAPGESLTLQCVSDVGYDRFVLYKEGERDLRQLPGRQPQAGLSQANFTLGPVSRSYGGQYRCYGAHNLSSECSAPSDPLDILITGQIRGTPFISVQPGPTVASGENVTLLCQSWRQFHTFLLTKAGAADAPLRLRSIHEYPKYQAEFPMSPVTSAHAGTYRCYGSLNSDPYLLSHPSEPLELVVSGPSMGSSPPPTGPISTPGPEDQPLTPTGSDPQSGLGRHLGVVIGILVAVVLLLLLLLLLFLILRHRRQGKHWTSTQRKADFQHPAGAVGPEPTDRGLQWRSSPAADAQEENLYAAVKDTQPEDGVEMDTRAAASEAPQDVTYAQLHSLTLRRKATEPPPSQEREPPAEPSIYATLAIH
partner: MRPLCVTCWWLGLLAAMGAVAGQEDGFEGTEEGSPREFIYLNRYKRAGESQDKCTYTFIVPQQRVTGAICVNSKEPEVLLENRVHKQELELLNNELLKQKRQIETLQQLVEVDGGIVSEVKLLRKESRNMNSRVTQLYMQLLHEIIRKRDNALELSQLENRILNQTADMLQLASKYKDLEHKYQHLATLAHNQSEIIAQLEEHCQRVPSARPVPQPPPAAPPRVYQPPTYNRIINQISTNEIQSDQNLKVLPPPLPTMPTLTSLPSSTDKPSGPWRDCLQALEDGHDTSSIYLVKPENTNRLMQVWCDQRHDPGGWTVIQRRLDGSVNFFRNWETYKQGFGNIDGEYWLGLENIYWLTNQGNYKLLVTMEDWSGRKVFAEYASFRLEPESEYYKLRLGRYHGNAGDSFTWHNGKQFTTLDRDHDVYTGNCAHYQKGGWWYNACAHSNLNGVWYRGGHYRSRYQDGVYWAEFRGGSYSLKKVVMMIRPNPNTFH
B2: Leukocyte immunoglobulin-like receptor subfamily B member 2 (Homo sapiens), Q8N423 (parent)
chain: B1 chain

Variants of: B1
Conditions: with angl2_human ANGPTL2, Q9UKU9
For Q99R, the “effect of a mutation on the interaction” value was “with no effect”.
In the case of Y96A;T393E, the “effect of a mutation on the interaction” value is reported as “decreasing interaction strength”.
With T93A the “effect of a mutation on the interaction” value was “increasing interaction strength”.
Y394A was tested, and the “effect of a mutation on the interaction” value was “decreasing interaction strength”.
In the case of G94D, the “effect of a mutation on the interaction” value is reported as “decreasing interaction strength”.
For H92S, the “effect of a mutation on the interaction” value was “with no effect”.
With R95E the “effect of a mutation on the interaction” value was “decreasing interaction strength”.
G392D was tested, and the “effect of a mutation on the interaction” value was “with no effect”.
With Y96A;Y394A the “effect of a mutation on the interaction” value was “disrupting interaction strength”.
For Y100G, the “effect of a mutation on the interaction” value was “decreasing interaction strength”.
For H92S;T93A;G94D;R95E;Y96A;G97R;Q99R;Y100G, the “effect of a mutation on the interaction” value was “decreasing interaction strength”.
G97R was tested, and the “effect of a mutation on the interaction” value was “with no effect”.
R59A;Y61A;W90A;D200A;N202A;Y205A was tested, and the “effect of a mutation on the interaction” value was “decreasing interaction strength”.
With R59A;Y61A the “effect of a mutation on the interaction” value was “decreasing interaction strength”.
With W90A;D200A;N202A;Y205A the “effect of a mutation on the interaction” value was “with no effect”.
For Y96A, the “effect of a mutation on the interaction” value was “decreasing interaction strength”.
T393E was tested, and the “effect of a mutation on the interaction” value was “with no effect”.
For Y96A;G392D, the “effect of a mutation on the interaction” value was “disrupting interaction strength”.

Variants of: B2
Conditions: with angl5_human ANGPTL5, Q86XS5
angl5_human ANGPTL5, Q86XS5, sequence (Q86XS5 whole entry): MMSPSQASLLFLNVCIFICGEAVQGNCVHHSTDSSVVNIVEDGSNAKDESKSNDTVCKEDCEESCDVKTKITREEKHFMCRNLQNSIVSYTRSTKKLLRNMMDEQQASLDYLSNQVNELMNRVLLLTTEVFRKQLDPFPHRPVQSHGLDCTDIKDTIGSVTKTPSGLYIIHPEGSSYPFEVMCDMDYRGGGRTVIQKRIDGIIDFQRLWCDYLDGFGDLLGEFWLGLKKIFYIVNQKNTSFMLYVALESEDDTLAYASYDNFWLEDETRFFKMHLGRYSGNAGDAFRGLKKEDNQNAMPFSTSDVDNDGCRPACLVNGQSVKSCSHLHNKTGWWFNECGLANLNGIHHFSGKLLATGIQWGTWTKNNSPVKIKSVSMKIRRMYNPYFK
In the case of H92S, the “effect of a mutation on the interaction” value is reported as “decreasing interaction strength”.
In the case of R59A;Y61A, the “effect of a mutation on the interaction” value is reported as “with no effect”.
Y100G was tested, and the “effect of a mutation on the interaction” value was “decreasing interaction strength”.
W90A;D200A;N202A;Y205A was tested, and the “effect of a mutation on the interaction” value was “decreasing interaction strength”.
R95E was tested, and the “effect of a mutation on the interaction” value was “decreasing interaction strength”.
For T93A, the “effect of a mutation on the interaction” value was “decreasing interaction strength”.
Y394A was tested, and the “effect of a mutation on the interaction” value was “decreasing interaction strength”.
In the case of Q99R, the “effect of a mutation on the interaction” value is reported as “decreasing interaction strength”.
G97R was tested, and the “effect of a mutation on the interaction” value was “with no effect”.
For R59A;Y61A;W90A;D200A;N202A;Y205A, the “effect of a mutation on the interaction” value was “decreasing interaction strength”.
Y96A;T393E was tested, and the “effect of a mutation on the interaction” value was “disrupting interaction strength”.
With G94D the “effect of a mutation on the interaction” value was “disrupting interaction strength”.
Y96A;G392D was tested, and the “effect of a mutation on the interaction” value was “disrupting interaction strength”.
With Y96A;Y394A the “effect of a mutation on the interaction” value was “disrupting interaction strength”.
Y96A was tested, and the “effect of a mutation on the interaction” value was “decreasing interaction strength”.
T393E was tested, and the “effect of a mutation on the interaction” value was “decreasing interaction strength”.
With G392D the “effect of a mutation on the interaction” value was “decreasing interaction strength”.

Reference: IntAct's records for PubMed 24899623
